# Results as given in article PMC7226950.
# Columns and labels:
# [1] = target: NY-ESO peptide on HLA-A*02:01 (human); assay: data from [41,42]; reprinted in Table 1
# [2] = target: NY-ESO, mutated peptide ESO4D (4D, 9V) peptide on HLA-A*02:01 (human); assay: data from [41,42]; reprinted in Table 1
# [3] = target: NY-ESO peptide on HLA-A*02:01 (human); assay: data from [41,42]; experimental binding affinity data reprinted in Table 1
substance,measurement,setting,value
1G4,koff,[1],0.82 s⁻¹
same,kon,[1],57000 M⁻¹ s⁻¹
same,t1/2,[1],0.84 s
same,Kd,[2],252 µM
same,koff,[2],2.59 s⁻¹
same,kon,[2],10000 M⁻¹ s⁻¹
same,t1/2,[2],0.27 s
same,Kd,[3],14 µM
